What was measured:
[1] = target: Mouse IgG2b (wild-type) (mouse); test: ITC
[2] = target: His-tagged mouse FcRn (mouse) (UniProt Q61559); test: BLI
Chain of UniProt Q61559 (Q61559 22-297, chain 1 of 2): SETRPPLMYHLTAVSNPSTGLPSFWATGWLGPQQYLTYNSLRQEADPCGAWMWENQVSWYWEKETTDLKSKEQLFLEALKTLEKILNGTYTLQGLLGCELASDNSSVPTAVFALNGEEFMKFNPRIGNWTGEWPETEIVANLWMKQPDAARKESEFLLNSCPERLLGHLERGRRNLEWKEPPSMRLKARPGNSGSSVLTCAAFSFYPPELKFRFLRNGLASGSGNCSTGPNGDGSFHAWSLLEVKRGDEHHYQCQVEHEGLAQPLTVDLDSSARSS
Chain of UniProt Q61559 (P01887 21-119, chain 2 of 2, further chain): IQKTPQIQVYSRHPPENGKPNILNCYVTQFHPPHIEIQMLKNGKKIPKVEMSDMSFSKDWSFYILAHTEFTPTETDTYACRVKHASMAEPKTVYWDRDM

Substance | Kd [1] | fold change of relative kon against wild-type IgG2a [2]
Z34C peptide | 2600 nM | –
Mouse IgG2a P307T, Q309L (antibody) | – | 2.7 fold

From PMC5680793
